Assay [1] concerns the target T1, VEGF (UniProt P15692-4 27-191). The experiment in a line: Biacore SPR, chimera immobilised; footnote: the kd is very low and difficult to measure. On the procedure: (§1) Biacore binding was performed at David Myszka's laboratory at the University of Utah or at the Genomic Research Center at Academia Sinica. Surfaces of binding protein chimera were made via chemical immobilization on a CM4 chip using standard amine coupling chemistry. […] Excess surface carboxyl activated sites on all four flow cells was blocked using the doubly positively charged species ethylenediamine. Binding experiments (but not immobilizations) in HBS-P (10 mM HEPES pH 7.4, 150 mM NaCl, 0.05% P20), The HBS-P was supplemented with BSA at 0.2 mg/mL, or HBS-P was supplemented with 500 mM NaCl (650 mM NaCl, final concentration). Analytes were also reconstituted in the corresponding buffer. All experiments were performed at 25° C. 1/150 dilutions of phosphoric acid were used to regenerate IGFBP3-Fc surfaces and a sequence of 3 M MgCl₂ followed by 5 M GuCl was used to regenerate surfaces immobilized with growth factor. Dissociation constants reported below used immobilized binding protein unless noted. Differences between binding constants may be expected between growth factor immobilization and chimera immobilization.
(§2) We selected his3t33Fc and chimera A for further analysis and examined their growth factor binding by Biacore and ELISA competition assays.

Assay [2] concerns the target T2, IGF-1 (UniProt P05019 49-118).
T2 construct: Biotinylated IGF-1 is written as the same molecule; also called biotinylated IGF-1; IGF-1-bio
The experiment in a line: biotinylated IGF-1 ELISA on Fc-captured chimera, 4 C PBS control (the reference); experiment 3-192. As to the method:
(§3) Plates were coated with goat anti-human Fc antibody, blocked and then incubated with chimera as in the Fc ELISA. Biotinylated IGF-1 (GroPep) or VEGF-Biotin (R&D Systems VEGF biotinylated with sulfo-NHS-LC-biotin as per instructions (Pierce) was added for 2 hours followed by streptavidin-HRP (Jackson Immunoresearch) for 30 minutes. Chromogenic development with tetramethyl benzidine was performed as described above.
(§4) To test the stability of the present chimeras, some purified chimeras (see, Table 4) were incubated with PBS or a conditioned medium from the MCF-7 cell line overnight at 37° C. and PBS overnight at 4° C. The IGF-1 binding and VEGF binding were measured using the biotinylated IGF-1 and VEGF.

Assay [3] addresses T3, nrgbx (UniProt Q02297-6 2-246, limits assumed).
T3 sequence (looked up): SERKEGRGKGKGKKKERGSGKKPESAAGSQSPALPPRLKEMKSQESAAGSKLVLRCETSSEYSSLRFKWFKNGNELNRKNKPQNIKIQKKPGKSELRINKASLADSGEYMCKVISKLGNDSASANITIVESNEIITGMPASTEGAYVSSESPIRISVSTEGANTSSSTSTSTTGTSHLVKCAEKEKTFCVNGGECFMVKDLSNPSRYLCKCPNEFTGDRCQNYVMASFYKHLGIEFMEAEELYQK
Nature of the assay: cell-based or functional assay.

For assay [4], the target named is T2, IGF-1. Nature of the assay: Biacore SPR, chimera immobilised. On the procedure: as §1, §2
For orientation: SPR reads the build-up and loss of mass on a sensor chip optically.

In assay [5] the target is T3, nrgbx. The experiment in a line: Biacore SPR, chimera immobilised. On the procedure: as §1, §2
Assay [6] has as its target mIGF-2 (UniProt P09535 25-91). Nature of the assay: Biacore SPR, chimera immobilised. On the procedure:
as §1, §2

Assay [7] deals with T4, PIGF (UniProt P49763-2 21-149).
T4 construct: also called placental growth factor
T4 sequence (looked up): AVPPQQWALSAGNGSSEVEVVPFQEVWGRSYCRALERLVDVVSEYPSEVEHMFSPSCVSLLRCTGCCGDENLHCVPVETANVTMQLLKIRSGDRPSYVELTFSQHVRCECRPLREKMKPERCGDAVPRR
The experiment in a line: Biacore SPR, chimera immobilised. On the procedure: as §1, §2

The target of assay [8] is TGF-α (UniProt P01135 40-89). Nature of the assay: Biacore SPR, chimera immobilised. As to the method: as §1, §2
Sequence of TGF-α (P01135 40-89 limits assumed): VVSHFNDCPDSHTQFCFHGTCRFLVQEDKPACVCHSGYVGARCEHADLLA
The target in assay [9] is mIGF-1 (UniProt P05017 49-118). The experiment in a line: Biacore SPR, chimera immobilised. As to the method: as §1, §2
Sequence of mIGF-1 (P05017 49-118 limits assumed): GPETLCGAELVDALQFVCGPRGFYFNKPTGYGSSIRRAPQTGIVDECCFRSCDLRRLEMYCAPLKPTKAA
Assay [10] concerns the target T5, VEGF-B (UniProt P49765-2 22-188).
T5 sequence (looked up): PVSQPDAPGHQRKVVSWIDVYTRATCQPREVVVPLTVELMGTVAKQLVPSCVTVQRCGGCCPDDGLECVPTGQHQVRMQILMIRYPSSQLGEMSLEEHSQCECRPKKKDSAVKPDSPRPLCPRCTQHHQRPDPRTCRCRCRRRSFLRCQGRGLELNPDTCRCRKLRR
Nature of the assay: Biacore SPR, chimera immobilised. As to the method: as §1, §2

Assay [11] deals with IGF-2 (UniProt P01344 25-91). The experiment in a line: Biacore SPR, chimera immobilised. As to the method: as §1, §2
Sequence of IGF-2 (P01344 25-91 limits assumed): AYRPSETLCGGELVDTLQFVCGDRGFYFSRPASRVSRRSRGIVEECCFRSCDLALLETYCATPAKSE
Assay [12] has as its target T2, IGF-1. Nature of the assay: SPR, without VEGF; absence of VEGF. On the procedure:
as §1
(§5) To further examine the nature of the VEGF and IGF binding to chimera A, simultaneous binding was examined using the surface plasmon resonance.

Assay [13] has as its target T2, IGF-1. The experiment in a line: SPR, in the presence of 3 nM VEGF; presence of 3 nM VEGF. As to the method: as §1, §5
For assay [14], the target named is T2, IGF-1. Nature of the assay: biotinylated IGF-1 ELISA on Fc-captured chimera, after overnight in MCF-7 conditioned medium at 37 C, against the 4 C PBS control; experiment 3-192. As to the method:
as §3, §4
(In general: In an ELISA, binding on a coated surface is turned into a signal by an enzyme label.)

Assay [15] addresses T6, bFGF (UniProt P09038 143-288, limits assumed).
T6 construct: also called basic fibroblast growth factor
The experiment in a line: Biacore SPR, growth factor immobilised. As to the method: as §1, §2

Assay [16] addresses T7, HGF (UniProt P14210 32-728).
T7 construct: also called hepatocyte growth factor
Nature of the assay: Biacore SPR, growth factor immobilised. As to the method:
as §1, §2

Assay [17] concerns the target T2, IGF-1. Nature of the assay: biotinylated IGF-1 ELISA on Fc-captured chimera, after overnight in PBS at 37 C, against the 4 C PBS control; experiment 3-192. As to the method: as §3, §4
In assay [18] the target is T6, bFGF. Nature of the assay: Biacore SPR, growth factor immobilised; growth factor immobilised.
The target of assay [19] is T6, bFGF. The experiment in a line: Biacore SPR, immobilised bFGF; experiment 4-79. On the procedure: as §1
Assay [20] deals with T2, IGF-1. The experiment in a line: biotinylated IGF-1 ELISA on Fc-captured chimera, after overnight in MCF-7 conditioned medium at 37 C, against the 4 C PBS control; experiment 4-81. On the procedure: as §3, §4
The target in assay [21] is T1, VEGF. Nature of the assay: Biacore SPR, chimera immobilised. On the procedure: as §1, §2
Assay [22] has as its target T2, IGF-1. Nature of the assay: biotinylated IGF-1 ELISA on Fc-captured chimera, 4 C PBS control (the reference); experiment 4-81. As to the method: as §3, §4
The target of assay [23] is T2, IGF-1. Nature of the assay: Biacore SPR; experiment 4-79. As to the method: as §1
Assay [24] concerns the target T2, IGF-1. The experiment in a line: biotinylated IGF-1 ELISA on Fc-captured chimera, after overnight in PBS at 37 C, against the 4 C PBS control; experiment 4-81. On the procedure: as §3, §4
Assay [25] addresses T2, IGF-1. The experiment in a line: cell-based or functional assay.

T2 sequence (P05019 49-118 limits assumed): as the sequence (P05017 49-118 limits assumed) above, with P20D, I35S, T67A, A69S counted along it
T6 sequence (P09038 143-288 limits assumed): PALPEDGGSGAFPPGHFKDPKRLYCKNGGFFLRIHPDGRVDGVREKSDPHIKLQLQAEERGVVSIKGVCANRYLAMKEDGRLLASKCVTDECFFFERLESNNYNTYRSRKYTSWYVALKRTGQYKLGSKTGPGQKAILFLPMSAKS
T1 sequence (P15692 other isoform, or with tags, fused parts or gaps limits assumed): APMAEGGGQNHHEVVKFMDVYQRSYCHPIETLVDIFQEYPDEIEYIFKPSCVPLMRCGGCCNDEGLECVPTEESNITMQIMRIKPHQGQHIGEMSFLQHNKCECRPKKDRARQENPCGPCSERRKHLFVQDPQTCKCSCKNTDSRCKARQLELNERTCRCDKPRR
T7 sequence (P14210 32-728 limits assumed): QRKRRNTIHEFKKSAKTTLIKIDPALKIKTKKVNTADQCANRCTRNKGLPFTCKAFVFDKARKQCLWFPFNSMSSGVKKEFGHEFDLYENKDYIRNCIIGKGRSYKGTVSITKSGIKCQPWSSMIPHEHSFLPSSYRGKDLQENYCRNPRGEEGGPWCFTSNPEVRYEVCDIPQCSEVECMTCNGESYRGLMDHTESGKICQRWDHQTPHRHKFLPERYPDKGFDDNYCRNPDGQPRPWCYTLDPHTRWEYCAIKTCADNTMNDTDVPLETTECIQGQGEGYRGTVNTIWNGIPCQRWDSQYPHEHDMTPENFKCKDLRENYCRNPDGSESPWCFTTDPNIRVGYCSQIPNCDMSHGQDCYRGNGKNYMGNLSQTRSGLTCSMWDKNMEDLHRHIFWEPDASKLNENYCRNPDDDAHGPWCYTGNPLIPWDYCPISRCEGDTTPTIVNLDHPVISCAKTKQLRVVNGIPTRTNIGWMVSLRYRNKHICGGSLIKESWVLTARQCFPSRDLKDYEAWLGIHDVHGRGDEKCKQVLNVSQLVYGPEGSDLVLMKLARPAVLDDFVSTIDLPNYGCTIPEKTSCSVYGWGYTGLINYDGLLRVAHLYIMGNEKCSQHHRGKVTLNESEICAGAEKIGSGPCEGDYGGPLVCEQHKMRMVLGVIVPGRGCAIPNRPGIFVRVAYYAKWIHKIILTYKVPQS
Sequence of mIGF-2 (P09535 25-91 limits assumed): as the sequence (P01344 25-91 limits assumed) above, with R3G, S5G, G22S, A32S, V35A, S36N counted along it

B1: IGFBP3-Fc-VEGF-1 (Fc fusion)
chain: GASSAGLGPVVRCEPCDARALAQCAPPPAVCAELVREPGCGCCLTCALSEGQPCGIYTERCGSGLRCQPSPDEARPLQALLDGRGLCVNASAVSKGHAKDSQRYKVDYESQSTDTQNFSSESKRETEYGPCRREMEDTLNHLKFLNVLSPRGVHIPNCDKKGFYKKKQCRPSKGRKRGFCWCVDKYGQPLPGYTTKGKEDVHCYSMQSKAPPAPGNASESEEDRSAGIYIFISDTGRPFVEMYSEIPEIIHMTEGRELVIPCRVTSPNITVTLKKFPLDTLIPDGKRIIWDSRKGFIISNATYKEIGLLTCEATVNGHLYKTNYLTHRQGYRIYDVVLSPSHGIELSVGEKLVLNCTARTELNVGIDFNWEYPSSKHQHKKLVNRDLKTQSGSEMKKFLSTLTIDGVTRSDQGLYTCAASSGLMTKKNSTFVRVHEKVECPPCPAPPVAGPSVFLFPPKPKDQLMISRTPEVTCVVVDVSHEDPEVKFNWYVDGVEVHNAKTKPREEQYNSTYRVVSVLTVLHQDWLNGKEYKCKVSNKGLPSSIEKTISKAKGQPREPQVYTLPPSREEMTKNQVSLTCLVKGFYPSDIAVEWESNGQPENNYKTTPPVLDSDGSFFLYSKLTVDKSRWQQGNVFSCSVMHEGLHNHYTQKSLSLSPGK
notes: IGFBP3 with linker deletion 1 - gly 3 linker - v1v2 (VEGFR1 domain 2, VEGFR2 domain 3) - Fc; dimeric; also called chimera A; chimeraA
As to B1, the Kd in assay [1] stood at 0.0038 nM; in assay [4], 0.0245 nM; in [5], 4.88 nM; in assay [6] it was 0.0513 nM; in assay [7], 0.999 nM; in assay [8], 9250 nM. Besides, the Kd was 0.137 nM in assay [9]; 0.5 nM in [10]; 0.0389 nM in assay [11]; 0.4 nM in [12]; 0.2 nM in assay [13]; 1.92 nM in [15]. This molecule returned a Kd in assay [16] of 0.0218 nM. For the same molecule, the “IGF-1 binding remaining over controls” value amounted to 100% in assay [2], 77% in assay [14] and 94% in [17]. In addition, the “IC50 in inhibiting neuregulin-induced proliferation” value in assay [3] is 47 nM.

B2: IGFBP3-Fc-1 (Fc fusion)
chain: GASSAGLGPVVRCEPCDARALAQCAPPPAVCAELVREPGCGCCLTCALSEGQPCGIYTERCGSGLRCQPSPDEARPLQALLDGRGLCVNASAVSKGHAKDSQRYKVDYESQSTDTQNFSSESKRETEYGPCRREMEDTLNHLKFLNVLSPRGVHIPNCDKKGFYKKKQCRPSKGRKRGFCWCVDKYGQPLPGYTTKGKEDVHCYSMQSKVECPPCPAPPVAGPSVFLFPPKPKDQLMISRTPEVTCVVVDVSHEDPEVKFNWYVDGVEVHNAKTKPREEQYNSTYRVVSVLTVLHQDWLNGKEYKCKVSNKGLPSSIEKTISKAKGQPREPQVYTLPPSREEMTKNQVSLTCLVKGFYPSDIAVEWESNGQPENNYKTTPPVLDSDGSFFLYSKLTVDKSRWQQGNVFSCSVMHEGLHNHYTQKSLSLSPGK
notes: IGFBP3 with IGFBP3 linker deletion 1 (55 amino acids deleted from the linker region), fused to Fc; dimeric; also called h3t33fc; his3t33fc
On to B2, for which the Kd in [18] stood at 13 nM; in assay [19], 13.3 nM; in assay [4] it was 0.161 nM; in assay [5] it was 5.98 nM; in [6], 0.14 nM; in assay [9], 0.21 nM. Further, the dissociation constant (Kd) in assay [10] is 3 nM; in assay [11], 0.174 nM; in assay [23], 0.575 nM; in [16], 0.608 nM. In addition, the “IGF-1 binding remaining over controls” value amounted to 100% in assay [2]; 51% in assay [20]; 100% in [22]; 54% in assay [14]; 99% in [17]; 101% in assay [24]. The binding result in assay [21] and in assay [8] was “no binding” each time.

B3: IGFBP3-Fc-3 (Fc fusion)
chain: GASSAGLGPVVRCEPCDARALAQCAPPPAVCAELVREPGCGCCLTCALSEGQPCGIYTERCGSGLRCQPSPDEARPLQALLDGRGLCVNASAVSRPAPPAPGNASESEEDRSAGSVESPSVSSTHRVSDPKFHPKGHAKVDYESQSTDTQNFSSESKRETEYGPCRREMEDTLNHLKFLNVLSPRGVHIPNCDKKGFYKKKQCRPSKGRKRGFCWCVDKYGQPLPGYTTKGKEDVHCYSMQSKVECPPCPAPPVAGPSVFLFPPKPKDQLMISRTPEVTCVVVDVSHEDPEVKFNWYVDGVEVHNAKTKPREEQYNSTYRVVSVLTVLHQDWLNGKEYKCKVSNKGLPSSIEKTISKAKGQPREPQVYTLPPSREEMTKNQVSLTCLVKGFYPSDIAVEWESNGQPENNYKTTPPVLDSDGSFFLYSKLTVDKSRWQQGNVFSCSVMHEGLHNHYTQKSLSLSPGK
notes: IGFBP3 with IGFBP3 linker deletion 3, fused to Fc; dimeric; also called 3(del3)3; 3(del3)3Fc
As for B3, the dissociation constant (Kd) in assay [19] turned out to be 3.44 nM; in assay [23], 0.371 nM. For the same molecule, the “IGF-1 binding remaining over controls” value in assay [20] worked out at 49%; in assay [22], 100%; in assay [24] it was 84%. Also, the “EC50 in inhibiting IGF-1 induced proliferation of hep3B cells” value in [25] turned out to be 21 nM. For the same molecule, the “IC50 in inhibiting neuregulin-induced proliferation” value in assay [3] turned out to be 80 nM.

Broadly, the Kd is a measure of binding affinity in units of concentration.

These data come from patent US20190359666A1 (ACADEMIA SINICA, published 2019).
